According to paper doi:10.1101/2023.03.09.531992:

Experiments:
[1] = biological target: clientized GST-S tail construct Thr1273Asp (SARS-CoV-2 S, Leu1244 to Thr1273) (SARS-CoV-2) (UniProt P0DTC2); assay: pull-down
[2] = biological target: clientized GST-S tail construct Thr1273Glu (SARS-CoV-2 S, Leu1244 to Thr1273) (SARS-CoV-2) (UniProt P0DTC2); assay: pull-down

endogenous coatomer complex (COPI), mouse liver cytosol, Q8CIE6;Q9JIF7;O55029;Q9QZE5;Q5XJY5;O89079;P61924
fold binding against the Lys-x-Lys-x-xCT dibasic mutant [1]: 2 fold | fold higher affinity than the wild-type GST-S tail construct [1]: 17 fold | fold binding against the Lys-x-Lys-x-xCT dibasic mutant [2]: 2 fold | fold higher affinity than the wild-type GST-S tail construct [2]: 17 fold
